# Biological target: NRXβ1 ECD (amino acids 81 to 311), His-tagged, labelled with Alexa Fluor 488, P0DI97
# Assay: fluorescence polarisation
# Conditions: chain shown with the change; Hill equation fit, shared slope n = 1.05 ± 0.05; NL2 concentration 0-8 µM; parent: 6.2 ± 0.4 µM
# Chain of NRXβ1 ECD (amino acids 81 to 311), His-tagged, labelled with Alexa Fluor 488, P0DI97 (P0DI97 other isoform, or with tags, fused parts or gaps): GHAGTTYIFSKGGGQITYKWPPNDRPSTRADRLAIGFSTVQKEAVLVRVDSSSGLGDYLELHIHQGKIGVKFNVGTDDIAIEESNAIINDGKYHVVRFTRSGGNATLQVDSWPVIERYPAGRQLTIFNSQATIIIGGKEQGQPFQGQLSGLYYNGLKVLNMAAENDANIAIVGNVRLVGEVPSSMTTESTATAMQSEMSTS
binder,measurement,value
"full-length neuroligin 2 (NL2), mouse, without the splice insert at site A, Q69ZK9 H279Y; G282K (protein) MWLLALCLVGLAGAQRGGGGPGGGAPGGPGLGLGSLGEERFPVVNTAYGRVRGVRRELNNEILGPVVQFLGVPYATPPLGARRFQPPEAPASWPGVRNATTLPPACPQNLHGALPAIMLPVWFTDNLEAAATYVQNQSEDCLYLNLYVPTEDGPLTKKRDEATLNPPDTDIRDSGKKPVMLFLHGGSYMEGTGNMFDGSVLAAYGNVIVVTLNYRLGVLGFLSTGDQAAKGNYGLLDQIQALRWLSENIAHFGGDPERITIFGSGAGASCVNLLILSHYSEKLFQKAIAQSGTAISSWSVNYQPLKYTRLLAAKVGCDREDSTEAVECLRRKSSRELVDQDVQPARYHIAFGPVVDGDVVPDDPEILMQQGEFLNYDMLIGVNQGEGLKFVEDSAESEDGVSASAFDFTVSNFVDNLYGYPEGKDVLRETIKFMYTDWADRDNGEMRRKTLLALFTDHQWVAPAVATAKLHADYQSPVYFYTFYHHCQAEGRPEWADAAHGDELPYVFGVPMVGATDLFPCNFSKNDVMLSAVVMTYWTNFAKTGDPNQPVPQDTKFIHTKPNRFEEVVWSKFNSKEKQYLHIGLKPRVRDNYRANKVAFWLELVPHLHNLHTELFTTTTRLPPYATRWPPRTPGPGTSGTRRPPPPATLPPESDIDLGPRAYDRFPGDSRDYSTELSVTVAVGASLLFLNILAFAALYYKRDRRQELRCRRLSPPGGSGSGVPGGGPLLPTAGRELPPEEELVSLQLKRGGGVGADPAEALRPACPPDYTLALRRAPDDVPLLAPGALTLLPSGLGPPPPPPPPSLHPFGPFPPPPPTATSHNNTLPHPHSTTRV",Kd,320 nM

# From PMC12985673
